From patent publication US20170002084A1 (VET THERAPEUTICS, published 2017)
Where two headings read alike, the source gives them in different places.

T1: Canine CD20 (canine, UniProt Q3C2E2 1-297)
T1 construct: also called recombinant canine CD20; dog CD20
T1 chain: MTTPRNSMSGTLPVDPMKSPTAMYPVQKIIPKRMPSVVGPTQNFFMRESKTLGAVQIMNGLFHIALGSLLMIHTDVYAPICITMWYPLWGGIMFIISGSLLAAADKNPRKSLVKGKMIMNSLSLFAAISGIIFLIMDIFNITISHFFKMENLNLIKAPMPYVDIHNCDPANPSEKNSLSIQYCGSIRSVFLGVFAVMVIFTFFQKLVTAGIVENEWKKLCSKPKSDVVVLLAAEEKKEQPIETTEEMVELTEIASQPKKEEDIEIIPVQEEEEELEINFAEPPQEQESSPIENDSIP

T2: Feline CD20 (feline)
T2 construct: also called recombinant feline CD20
T2 chain: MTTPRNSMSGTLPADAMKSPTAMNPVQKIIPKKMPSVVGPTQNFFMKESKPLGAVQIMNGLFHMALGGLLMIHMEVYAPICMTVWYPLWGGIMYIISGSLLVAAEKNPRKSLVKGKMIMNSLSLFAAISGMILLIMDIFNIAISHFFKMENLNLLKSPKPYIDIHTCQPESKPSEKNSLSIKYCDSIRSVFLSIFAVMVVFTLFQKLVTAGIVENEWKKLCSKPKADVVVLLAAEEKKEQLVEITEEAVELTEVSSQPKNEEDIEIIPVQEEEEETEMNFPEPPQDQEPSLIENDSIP


How the values were obtained:
Canine CD20 [1] = molecular target: T1, Canine CD20; assay: FACS on canine PBMC, 2 µg antibody, FITC anti-dog IgG
Experimental: In the present example, the antibody variants are incubated with the CD20 positive cells and the amount of bound antibody is assessed following incubation with a fluorescent-labeled reporter reagent. The reporter is thereafter measured by FACS.
Briefly, for each assay, one million cells of Peripheral Blood Mononuclear Cell (PBMC) isolated from whole blood from a normal dog by standard techniques were resuspended in FACS buffer (PBS+2% FBS). Two μg of the primary antibody are added to the cells and the samples were incubated at 4° C. for 1 h. The primary antibody is provided as supernatants from transfected cells with recombinant antibody constructs or from purified antibody preparation. The mouse anti-dog CD21 mAb (Serotec) recognizing B-lymphocytes is added to the cells as a control to estimate the percentage of B-lymphocytes in a given sample. One ml of FACS buffer are added and cells are spun down for 3 min at 800×g in Eppendorf microcentrifuge. The cells are washed with 1 mL FACS buffer and spun down again. The secondary antibodies such as fluorescein-isothiocynate (FITC) conjugated goat anti-mouse kappa (mFITC, Jackson ImmunoResearch), or the FITC-conjugated goat anti-dog IgG (H+L) (dFITC, Bethyl Laboratories) are added in 100 μL of FACS buffer supplemented with 1% BSA to appropriate tubes and the tubes were incubated at 4° C. for 30 minutes. The wash steps are repeated. The cells are then resuspended in 500 μL FACS buffer and transferred into 12×75 mm polystyrene test tubes. The cells are analyzed by FACS with a FacScan cytometer using the CellQuest software (Becton-Dickenson). Analysis gates are set on the live lymphocyte population based on typical forward and side scatter characteristics. Several controls are utilized to determine the background fluorescence: (i) one tube of cells is incubated with the FITC-conjugated secondary antibody without the primary antibody, and (ii) one tube of cells is incubated with PBS only.
The overall percentage of B-cell subset in this sample is estimated to be approximately 12% based on the binding of the anti-dog CD21 mab control. The results of Table 3 evidence effective binding of the antibody variants to lymphocytes.

Feline CD20 [2] = molecular target: T2, Feline CD20; assay: FACS on mammalian cells expressing recombinant feline CD20
Experimental: (§1) In the present example, the antibody variants (2.5 μg/mL) are incubated with mammalian cells expressing the recombinant feline CD20 or canine CD20 or control cells. The amount of bound antibody is assessed by detection with a fluorescent-labeled reporter antibody reagent. Several controls are utilized to determine the background fluorescence: (i) CD20 expressing cells are incubated with the conjugated secondary antibody with an isotype antibody, and (ii) Control cells are incubated with the anti-CD20 antibodies.
(§2) The results reported as mean fluorescence units evidence effective binding of the antibodies CD20-2, CD20-5, and CD20-6 to the recombinant canine CD20 expressed in HEK cells. Only CD20-2 and CD20-5 antibodies bind feline CD20 expressed in mammalian cells.

Canine CD20 [3] = molecular target: T1, Canine CD20; assay: cell-based or functional assay
Canine CD20 [4] = molecular target: T1, Canine CD20; assay: FACS on CHO cells expressing recombinant canine CD20
Experimental: The antibody variants of the present invention are compared for their binding affinity to canine CD20. Binding affinity is assessed by measuring binding to the recombinant canine CD20 expressed in CHO cells by FACS analysis as described above.

Canine CD20 [5] = molecular target: T1, Canine CD20; assay: FACS on HEK cells expressing recombinant canine CD20, antibody 2.5 µg/mL
Experimental: as §1, §2

Feline CD20 [6] = molecular target: T2, Feline CD20; assay: FACS on mammalian cells expressing recombinant feline CD20, antibody 2.5 µg/mL
Experimental: as §1, §2

Canine CD20 [7] = molecular target: T1, Canine CD20; assay: FACS on CHO cells expressing recombinant canine CD20

% Lymphocytes (Canine CD20 [1]) | Mean Fluorescence (Canine CD20 [1]) | Reduction (%) of cell proliferation of lymphoma cells (Canine CD20 [3]) | Kd (Canine CD20 [4]) | mean fluorescence units (Canine CD20 [5]) | mean fluorescence units (Feline CD20 [6]) | Binder | other results
13.7% | 2910 | – | – | – | – | VET 133 × VET 260 (antibody, V domains shown, Mixed pairing: CD20-1 light chain with CD20-2 heavy chain; also called VET133 x VET260) VH: QVQLQQSRAELVRPGASVTLSCKPSGYTFTDYEVHWVKQTPVHGLEWIGAIDPETGGTADNQKFKGKAILTADKSSSTAYMELRSLTSEDSAVYYCTNFVDVWGTGTTVTVSS VL: not shown | –
– | – | 27.6% | 63.4 nM | 2110 mean fluorescence units | 60 mean fluorescence units | anti-canine CD20 antibody CD20-6 (VET309) (antibody, V domains shown, also called Mab CD20-6) VH: EIQLQQSGAELVRPGASVTLSCKASGYTFTDYEMHWVKQTPVHGLEWIGGIDPETGGTAYNQKFKGKAILTADKSSSTVYMELRSLTSEDSAVYYCTRDYGTSGYWGQGTLVTVSS VL: DVVVTQTPLSLPVSFGDQVSISCRSSQSLANSYGNTYLSWYLHKPGQSPQLLIYGISNRFSGVPDRFSGSGSGTDFTLKISRVEAEDLGVYFCSQSTHVPWTFGGGTHLTVLG | binding result (Feline CD20 [2]): no binding (tested: 2.5 µg/mL)
8.33% | 2500 | – | – | – | – | VET 135 × VET 257 (antibody, V domains shown, Mixed pairing: CD20-2 light chain with CD20-1 heavy chain; also called VET135 x VET257) VH: EIQLQQSGAELVKPGASVKISCKASGYTFTDYYINWVKQRPGQGLEWIGKIGPGSGRTYYNEKFKGKATLTADKSSSTAYIQISSLTSEDSAVYFCAVLSWGQGTTLTVSS VL: DVVMSQSPSSLAVSVGEKVTMSCKSSQSLLYSGNQKNYLAWYQQKPGQSPRLLIYWASTRESGVPDRFTGSGSGTDFTLTISSVKAEDLAVFYCQQYYNYPLTFGAGTKLELKG | –
12% | 3170 | – | – | – | – | VET 133 × VET 257 (antibody, V domains shown, Light chain vector VET133 co-transfected with heavy chain vector VET257 in 293F cells; mouse variable domains on canine constant domains; also called VET133 x VET257) VH: EIQLQQSGAELVKPGASVKISCKASGYTFTDYYINWVKQRPGQGLEWIGKIGPGSGRTYYNEKFKGKATLTADKSSSTAYIQISSLTSEDSAVYFCAVLSWGQGTTLTVSS VL: not shown | –
– | – | – | – | – | – | anti-canine CD20 antibody CD20-1 (antibody, V domains shown, called 'recombinant anti-canine CD20 antibody'; also called Mab CD20-1) VH: EIQLQQSGAELVKPGASVKISCKASGYTFTDYYINWVKQRPGQGLEWIGKIGPGSGRTYYNEKFKGKATLTADKSSSTAYIQISSLTSEDSAVYFCAVLSWGQGTTLTVSS VL: not shown | Kd (Canine CD20 [7]): 1 nM
12.7% | 2660 | – | – | – | – | VET 135 × VET 260 (antibody, CD20-2 variable domains on canine constant domains; light chain differs from VET305 (which has the FR4T light chain); also called VET135 x VET260) heavy: QVQLQQSRAELVRPGASVTLSCKPSGYTFTDYEVHWVKQTPVHGLEWIGAIDPETGGTADNQKFKGKAILTADKSSSTAYMELRSLTSEDSAVYYCTNFVDVWGTGTTVTVSSASTTAPSVFPLAPSCGSQSGSTVALACLVSGYFPEPVTVSWNSGSLTSGVHTFPSVLQSSGLYSLSSMVTVPSSRWPSETFTCNVAHPASKTKVDKPVPKRENGRVPRPPDCPKCPAPEMLGGPSVFIFPPKPKDTLLIARTPEVTCVVVDLDPEDPEVQISWFVDGKQMQTAKTQPREEQFNGTYRVVSVLPIGHQDWLKGKQFTCKVNNKALPSPIERTISKARGQAHQPSVYVLPPSREELSKNTVSLTCLIKDFFPPDIDVEWQSNGQQEPESKYRTTPPQLDEDGSYFLYSKLSVDKSRWQRGDTFICAVMHEALHNHYTQKSLSHSPGK light: DVVMSQSPSSLAVSVGEKVTMSCKSSQSLLYSGNQKNYLAWYQQKPGQSPRLLIYWASTRESGVPDRFTGSGSGTDFTLTISSVKAEDLAVFYCQQYYNYPLTFGAGTKLELKGQPKASPSVTLFPPSSEELGANKATLVCLISDFYPSGVTVAWKADGSPITQGVETTKPSKQSNNKYAASSYLSLTPDKWKSHSSFSCLVTHEGSTVEKKVAPAECS | –
– | – | 55% | 8.85 nM | 2340 mean fluorescence units | 2210 mean fluorescence units | anti-canine CD20 antibody CD20-2 (VET305) (antibody, also called Mab CD20-2) heavy: QVQLQQSRAELVRPGASVTLSCKPSGYTFTDYEVHWVKQTPVHGLEWIGAIDPETGGTADNQKFKGKAILTADKSSSTAYMELRSLTSEDSAVYYCTNFVDVWGTGTTVTVSSASTTAPSVFPLAPSCGSQSGSTVALACLVSGYFPEPVTVSWNSGSLTSGVHTFPSVLQSSGLYSLSSMVTVPSSRWPSETFTCNVAHPASKTKVDKPVPKRENGRVPRPPDCPKCPAPEMLGGPSVFIFPPKPKDTLLIARTPEVTCVVVDLDPEDPEVQISWFVDGKQMQTAKTQPREEQFNGTYRVVSVLPIGHQDWLKGKQFTCKVNNKALPSPIERTISKARGQAHQPSVYVLPPSREELSKNTVSLTCLIKDFFPPDIDVEWQSNGQQEPESKYRTTPPQLDEDGSYFLYSKLSVDKSRWQRGDTFICAVMHEALHNHYTQKSLSHSPGK light: DVVMSQSPSSLAVSVGEKVTMSCKSSQSLLYSGNQKNYLAWYQQKPGQSPRLLIYWASTRESGVPDRFTGSGSGTDFTLTISSVKAEDLAVFYCQQYYNYPLTFGGGTHLTVLGQPKASPSVTLFPPSSEELGANKATLVCLISDFYPSGVTVAWKADGSPITQGVETTKPSKQSNNKYAASSYLSLTPDKWKSHSSFSCLVTHEGSTVEKKVAPAECS | –
– | – | 60.1% | 1.21 nM | 2770 mean fluorescence units | 2048 mean fluorescence units | anti-canine CD20 antibody CD20-5 (VET308) (antibody, V domains shown, also called Mab CD20-5) VH: QVQLKQSGAELVKPGASVKISCKASGYTFTDYYINWVKQRPGQGLEWIGKIGPRSGSIYYNEKFKGKATLTADKSSSTAYMQLRSLTSEDSAVYFCAVLKWGQGTLVTVSS VL: not shown | –
13% | 2660 | – | – | – | – | VET 124 × VET 237 (antibody, V domains shown, also called VET124 x VET237) VH: EVQLQQSVAELVRPGASVTLSCKASGYTFTDYEMHWVKQTPVHGLEWIGEIDPETGGTAYNQKFKGKAILTADKSSSTAYMELRSLTSEDSAVYYCTEYAMDYWGQGTLVTVSS VL: not shown | –
